Reference: US20240270846A1 (published 2024)
Changes are numbered by the printed parent chain. Numbers in names are those of the source.

B1: CE115HA000/GLS3000 N53D one-arm antibody (antibody, human IgG1, kappa, L234A L235A, N297A, name in Kabat numbering)
heavy: QVQLVESGGGVVQPGRSLRLSCAASGFTFSNAWMHWVRQAPGKGLEWVAQIKAKSNNYATYYAESVKGRFTISRDDSKNSLYLQMNSLKTEDTAVYYCRYVHYGAYYGVDAWGQGTTVTVSSASTKGPSVFPLAPSSKSTSGGTAALGCLVKDYFPEPVTVSWNSGALTSGVHTFPAVLQSSGLYSLSSVVTVPSSSLGTQTYICNVNHKPSNTKVDKKVEPKSCDKTHTCPPCPAPEAAGGPSVFLFPPKPKDTLMISRTPEVTCVVVDVSHEDPEVKFNWYVDGVEVHNAKTKPREEQYASTYRVVSVLTVLHQDWLNGKEYKCKVSNKALPAPIEKTISKAKGQPREPQVYTLPPSRCELTKNQVSLSCAVKGFYPSDIAVEWESNGQPENNYKTTPPVLDSDGSFFLVSKLTVDKSRWQQGNVFSCSVMHEALHNHYTQKSLSLSPDYKDDDDK
chain: EPKSSDKTHTCPPCPAPELLGGPSVFLFPPKPKDTLMISRTPEVTCVVVDVSHEDPEVKFNWYVDGVEVHNAKTKPREEQYNSTYRVVSVLTVLHQDWLNGKEYKCKVSNKALPAPIEKTISKAKGQPREPQVCTLPPSRDELTKNQVSLWCLVKGFYPSDIAVEWESNGQPENNYKTTPPVLDSDGSFFLYSKLTVDKSRWQQGNVFSCSVMHEALHNRYTQKSLSLSP
light: DIVMTQSPLSLPVTPGEPASISCRSSQSLVHSNRNTYLHWYQQKPGQAPRLLIYKVSDRFSGVPDRFSGSGSGTDFTLKISRVEAEDVGVYYCGQGTQVPYTFGQGTKLEIKRTVAAPSVFIFPPSDEQLKSGTASVVCLLNNFYPREAKVQWKVDNALQSGNSQESVTEQDSKDSTYSLSSTLTLSKADYEKHKVYACEVTHQGLSSPVTKSFNRGEC
notes: one-arm IgG1
B2: CE115HA000/GLS3000 F55D one-arm antibody (antibody, human IgG1, kappa, L234A L235A, N297A, name in Kabat numbering)
heavy: B1 heavy
chain: B1 chain
light: B1 light with D58N, F60D
notes: one-arm IgG1
B3: CE115HA000/GLS3000 F55E one-arm antibody (antibody, human IgG1, kappa, L234A L235A, N297A, name in Kabat numbering)
heavy: B1 heavy
chain: B1 chain
light: B1 light with D58N, F60E
notes: one-arm IgG1
B4: CE115HA000/GLS3000 F55G one-arm antibody (antibody, human IgG1, kappa, L234A L235A, N297A, name in Kabat numbering)
heavy: B1 heavy
chain: B1 chain
light: B1 light with D58N, F60G
notes: one-arm IgG1
B5: CE115HA000/GLS3000 F55H one-arm antibody (antibody, human IgG1, kappa, L234A L235A, N297A, name in Kabat numbering)
heavy: B1 heavy
chain: B1 chain
light: B1 light with D58N, F60H
notes: one-arm IgG1
B6: CE115HA000/GLS3000 F55I one-arm antibody (antibody, human IgG1, kappa, L234A L235A, N297A, name in Kabat numbering)
heavy: B1 heavy
chain: B1 chain
light: B1 light with D58N, F60I
notes: one-arm IgG1
B7: CE115HA000/GLS3000 F55K one-arm antibody (antibody, human IgG1, kappa, L234A L235A, N297A, name in Kabat numbering)
heavy: B1 heavy
chain: B1 chain
light: B1 light with D58N, F60K
notes: one-arm IgG1
B8: GLS3000 V94L one-arm antibody (antibody, human IgG1, kappa, L234A L235A, N297A, name in Kabat numbering)
light: B1 light with D58N, V99L
heavy: B1 heavy
chain: B1 chain
B9: GLS3000 V94M one-arm antibody (antibody, human IgG1, kappa, L234A L235A, N297A, name in Kabat numbering)
light: B1 light with D58N, V99M
heavy: B1 heavy
chain: B1 chain
B10: GLS3000 V94N one-arm antibody (antibody, human IgG1, kappa, L234A L235A, N297A, name in Kabat numbering)
light: B1 light with D58N, V99N
heavy: B1 heavy
chain: B1 chain
B11: GLS3000 V94P one-arm antibody (antibody, human IgG1, kappa, L234A L235A, N297A, name in Kabat numbering)
light: B1 light with D58N, V99P
heavy: B1 heavy
chain: B1 chain
B12: GLS3000 V94Q one-arm antibody (antibody, human IgG1, kappa, L234A L235A, N297A, name in Kabat numbering)
light: B1 light with D58N, V99Q
heavy: B1 heavy
chain: B1 chain
B13: GLS3000 V94R one-arm antibody (antibody, human IgG1, kappa, L234A L235A, N297A, name in Kabat numbering)
light: B1 light with D58N, V99R
heavy: B1 heavy
chain: B1 chain
B14: GLS3000 V94S one-arm antibody (antibody, human IgG1, kappa, L234A L235A, N297A, name in Kabat numbering)
light: B1 light with D58N, V99S
heavy: B1 heavy
chain: B1 chain
B15: GLS3000 V94T one-arm antibody (antibody, human IgG1, kappa, L234A L235A, N297A, name in Kabat numbering)
light: B1 light with D58N, V99T
heavy: B1 heavy
chain: B1 chain
B16: GLS3000 V94W one-arm antibody (antibody, human IgG1, kappa, L234A L235A, N297A, name in Kabat numbering)
light: B1 light with D58N, V99W
heavy: B1 heavy
chain: B1 chain
B17: GLS3000 Y32F one-arm antibody (antibody, human IgG1, kappa, L234A L235A, N297A, name in Kabat numbering)
light: B1 light with Y37F, D58N
heavy: B1 heavy
chain: B1 chain
B18: GLS3000 Y32P one-arm antibody (antibody, human IgG1, kappa, L234A L235A, N297A, name in Kabat numbering)
light: B1 light with Y37P, D58N
heavy: B1 heavy
chain: B1 chain
B19: GLS3000 Y96D one-arm antibody (antibody, human IgG1, kappa, L234A L235A, N297A, name in Kabat numbering)
light: B1 light with D58N, Y101D
heavy: B1 heavy
chain: B1 chain
B20: GLS3000 Y96E one-arm antibody (antibody, human IgG1, kappa, L234A L235A, N297A, name in Kabat numbering)
light: B1 light with D58N, Y101E
heavy: B1 heavy
chain: B1 chain
B21: GLS3000 Y96F one-arm antibody (antibody, human IgG1, kappa, L234A L235A, N297A, name in Kabat numbering)
light: B1 light with D58N, Y101F
heavy: B1 heavy
chain: B1 chain
B22: GLS3000 Y96H one-arm antibody (antibody, human IgG1, kappa, L234A L235A, N297A, name in Kabat numbering)
light: B1 light with D58N, Y101H
heavy: B1 heavy
chain: B1 chain
B23: GLS3000 Y96L one-arm antibody (antibody, human IgG1, kappa, L234A L235A, N297A, name in Kabat numbering)
light: B1 light with D58N, Y101L
heavy: B1 heavy
chain: B1 chain

What follows are binders tested against T1, CD3 epsilon homodimer protein (UniProt P07766 23-126) (assay: SPR (Biacore T200), CD3e homodimer on CM4 chip, antibody as analyte; KD ratio vs unaltered GLS3000;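 also: CD3 epsilon homodimer amine-coupled to the sensor surface, antibodies injected as analyte at 25 °C with HBS-EP+ running buffer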).
T1 construct: also called CD3 (CD3 epsilon)
T1 sequence (P07766 23-126): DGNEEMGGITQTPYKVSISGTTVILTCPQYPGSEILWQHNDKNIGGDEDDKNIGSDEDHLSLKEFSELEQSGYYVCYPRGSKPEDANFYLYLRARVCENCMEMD
In the case of B1, the “KD ratio to GLS3000” value is reported as 2.8 ratio. B2 was tested, and the “KD ratio to GLS3000” value was 1.02 ratio. B3 was tested, and the “KD ratio to GLS3000” value was 0.92 ratio. With B4 the “KD ratio to GLS3000” value was 1.15 ratio. For B5, the “KD ratio to GLS3000” value was 1.02 ratio. With B6 the “KD ratio to GLS3000” value was 1.28 ratio. With B7 the “KD ratio to GLS3000” value was 1.22 ratio.

What follows are binders tested against T2, CD3 epsilon homodimer protein (UniProt P07766 23-126) (assay: SPR Biacore T200, CD3e homodimer on chip, antibody analyte;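 also: CD3 epsilon homodimer amine-coupled on CM4 sensor chip, antibodies injected as analyte at 25 °C in HBS-EP+, ratio ≥0.8 taken as binding retained versus unaltered parent antibody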).
T2 construct: Construct of the homodimer is not described; also called CD3 (CD3 epsilon)
T2 sequence (P07766 23-126): as above
With B8 the “ratio of amounts bound (altered form/GLS3000)” value was 0.44. With B9 the “ratio of amounts bound (altered form/GLS3000)” value was 0.44. In the case of B10, the “ratio of amounts bound (altered form/GLS3000)” value is reported as 1.05. With B11 the “ratio of amounts bound (altered form/GLS3000)” value was 1.26. B12 was tested, and the “ratio of amounts bound (altered form/GLS3000)” value was 0.76. B13 was tested, and the “ratio of amounts bound (altered form/GLS3000)” value was 0.66. With B14 the “ratio of amounts bound (altered form/GLS3000)” value was 0.93. For B15, the “ratio of amounts bound (altered form/GLS3000)” value was 0.93. In the case of B16, the “ratio of amounts bound (altered form/GLS3000)” value is reported as 0.58. B17 was tested, and the “ratio of amounts bound (altered form/GLS3000)” value was 0.29. B18 was tested, and the “ratio of amounts bound (altered form/GLS3000)” value was 0.24. B19 was tested, and the “ratio of amounts bound (altered form/GLS3000)” value was 0.17. With B20 the “ratio of amounts bound (altered form/GLS3000)” value was 0.17. In the case of B21, the “ratio of amounts bound (altered form/GLS3000)” value is reported as 1.17. B22 was tested, and the “ratio of amounts bound (altered form/GLS3000)” value was 0.23. In the case of B23, the “ratio of amounts bound (altered form/GLS3000)” value is reported as 0.32.
